± gives the standard deviation of the averaged measurements.
Tested on: Saccharomyces cerevisiae
Assay: protein stability index of tFT-peptide fusion (C-terminal peptide) (PSI (0-1 scale)); higher = more stable (slower turnover)
Conditions: temperature: 30 C
Protocol: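 MPS profiling in S. cerevisiae of the yeast C-terminome library: the last 12 aa of each annotated ORF are fused to the C-terminus of a sfGFP-mCherry timer, after a GGGS linker. Cells are FACS-sorted into 8 mCherry/sfGFP bins and deep-sequenced. PSI runs from 0 (unstable) to 1 (stable); wild type and das1Δ backgrounds, two technical replicates each.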

[1] = genetic background: das1 deletion

Sequence	protein stability index [1]	protein stability index (genetic background: wild type)
IKSLFSLAKEAS [MSC7 C-terminal 12 aa]	0.703 ± 0.01	0.5867 ± 0.0023
IKVDNIVHIRND [YFH7 C-terminal 12 aa]	0.6928 ± 0.0038	0.723 ± 0.039
ILEAWEKVDDSL [SNX4 C-terminal 12 aa]	0.734 ± 0.013	0.734 ± 0.016
ILQCFTDEILNC [NDJ1 C-terminal 12 aa]	0.691 ± 0.0087	0.68 ± 0.022
ILRILANSNDDN [BXI1 C-terminal 12 aa]	0.699 ± 0.036	0.6562 ± 0.0062
ILSWYFLETVAV [YMR254C C-terminal 12 aa]	0.317 ± 0.024	0.34 ± 0.018
INEDNKAYSLDY [RIM4 C-terminal 12 aa]	0.69877 ± 0.00035	0.722 ± 0.026
IPLTEFDLSDSK [YMR253C C-terminal 12 aa]	0.701 ± 0.0095	0.73422 ± 0.00045
IQESRFNFYLIT [RKM5 C-terminal 12 aa]	0.683 ± 0.023	0.6241 ± 0.0035
IRDEGLNNLDTA [YPL257W C-terminal 12 aa]	0.6944 ± 0.006	0.704 ± 0.019
IRLFRSARRWVG [ADE6 C-terminal 12 aa]	0.7017 ± 0.0011	0.66 ± 0.0083
IRSRGRLKEVYF [SLX5 C-terminal 12 aa]	0.732 ± 0.026	0.68566 ± 0.00055
ISDNVPKEAIIM [PSA1 C-terminal 12 aa]	0.686 ± 0.023	0.631 ± 0.034
ISGGTFGFRSEI [HBT1 C-terminal 12 aa]	0.696 ± 0.02	0.7165 ± 0.0021
ISIVACALWLVF [DCW1 C-terminal 12 aa]	0.288 ± 0.003	0.291 ± 0.0036
ISKVSNTRVCCT [YAL004W C-terminal 12 aa]	0.6431 ± 0.0031	0.654 ± 0.017
ISSKSIPSVDDK [YIL071W-A C-terminal 12 aa]	0.677 ± 0.025	0.706 ± 0.067
ISVSSGIENFAT [YJL202C C-terminal 12 aa]	0.692 ± 0.042	0.654 ± 0.019
ITFIASLMTLNK [SAC6 C-terminal 12 aa]	0.66916 ± 0.0005	0.679 ± 0.021
ITSQDILASTDY [YHL009W-B C-terminal 12 aa]	0.688 ± 0.015	0.711 ± 0.027
ITSYNFLGVPFK [YLR406C-A C-terminal 12 aa]	0.746 ± 0.018	0.724 ± 0.043

Sequence	protein stability index [1]	protein stability index (genetic background: wild type)
IVALILNTRGSE [VMA11 C-terminal 12 aa]	0.683 ± 0.0096	0.668 ± 0.028
IVKAVKEVLSIE [PDB1 C-terminal 12 aa]	0.683 ± 0.0044	0.667 ± 0.044
IVLPENIPLLYK [YJL195C C-terminal 12 aa]	0.694 ± 0.037	0.672 ± 0.023
IVPLSELEKTLI [XKS1 C-terminal 12 aa]	0.696 ± 0.016	0.687 ± 0.0097
IVPSQGKKVKFD [NOP13 C-terminal 12 aa]	0.679 ± 0.0068	0.676 ± 0.011
IYKCEDERIDYF [KOG1 C-terminal 12 aa]	0.6594 ± 0.00099	0.726 ± 0.015
IYLLSDYEKDNI [CMR2 C-terminal 12 aa]	0.709 ± 0.044	0.684 ± 0.0073
KAELDRYKRENQ [SEM1 C-terminal 12 aa]	0.7052 ± 0.0058	0.709 ± 0.049
KAFVIGAIALVA [YMR317W C-terminal 12 aa]	0.331 ± 0.01	0.341 ± 0.0043
KALELILNILEH [SNU56 C-terminal 12 aa]	0.683 ± 0.033	0.667 ± 0.012
KARLTEEQHRHE [CWC21 C-terminal 12 aa]	0.705 ± 0.0052	0.697 ± 0.019
KAVEFTTTALSS [MKT1 C-terminal 12 aa]	0.715 ± 0.0089	0.747 ± 0.11
KCQTKHTFTGLI [YGR269W C-terminal 12 aa]	0.695 ± 0.0072	0.723 ± 0.021
KDEINYLNSKLK [SPA2 C-terminal 12 aa]	0.692 ± 0.07	0.706 ± 0.083
KDVIVDHHSDLN [SAP4 C-terminal 12 aa]	0.706 ± 0.048	0.701 ± 0.052
KEQEESEKDKEN [BFR1 C-terminal 12 aa]	0.732 ± 0.015	0.69 ± 0.05
KFDEKTATLVDE [YDL144C C-terminal 12 aa]	0.692 ± 0.027	0.675 ± 0.022
KFETPGEYKKRI [LCL3 C-terminal 12 aa]	0.697 ± 0.029	0.712 ± 0.019
KFPLSVKKKIRI [YNR075C-A C-terminal 12 aa]	0.6821 ± 0.0027	0.697 ± 0.066
KGKLITKVNNEE [YML131W C-terminal 12 aa]	0.648 ± 0.029	0.628 ± 0.04
KGPSKTALLSKK [PKP1 C-terminal 12 aa]	0.707 ± 0.021	0.711 ± 0.033

Sequence	protein stability index [1]	protein stability index (genetic background: wild type)
KGVIGTNPPITH [MPC3 C-terminal 12 aa]	0.7045 ± 0.0018	0.719 ± 0.081
KGVVTLEEILKA [COQ11 C-terminal 12 aa]	0.712 ± 0.012	0.712 ± 0.028
KHKNILPFNFTK [YEL074W C-terminal 12 aa]	0.703 ± 0.037	0.741 ± 0.0086
KIGKGKLYFAIV [YDR220C C-terminal 12 aa]	0.666 ± 0.011	0.491 ± 0.015
KIITLDLSNYAE [SMC1 C-terminal 12 aa]	0.709 ± 0.057	0.672 ± 0.049
KIRPTFGDNQAS [HST3 C-terminal 12 aa]	0.6923 ± 0.001	0.73 ± 0.043
KISLLSHAQCYK [YIR016W C-terminal 12 aa]	0.668 ± 0.024	0.6506 ± 0.0051
KKGETFGYDKWW [OPT1 C-terminal 12 aa]	0.725 ± 0.021	0.683 ± 0.032
KKGPKFKSRKKL [RRP12 C-terminal 12 aa]	0.748 ± 0.037	0.678 ± 0.011
KKHRVGMPKEDK [DIC1 C-terminal 12 aa]	0.67 ± 0.013	0.69 ± 0.031
KKIIKKKDFYHR [YOR011W-A C-terminal 12 aa]	0.728 ± 0.015	0.706 ± 0.04
KKKDASQEESLI [VMA2 C-terminal 12 aa]	0.6922 ± 0.0019	0.7066 ± 0.0041
KKKKNASTCTIL [RSR1 C-terminal 12 aa]	0.7494 ± 0.0014	0.711 ± 0.03
KKKKQIKNFQFG [YMR290W-A C-terminal 12 aa]	0.687 ± 0.0087	0.656 ± 0.05
KKLDGEVLCRVK [MRPS8 C-terminal 12 aa]	0.659 ± 0.021	0.6437 ± 0.0055
KKLNRKIASIFN [ZEO1 C-terminal 12 aa]	0.718 ± 0.011	0.6644 ± 0.0016
KKLRQPKEGETF [MMS2 C-terminal 12 aa]	0.7046 ± 0.00082	0.6737 ± 0.00082
KKRKFGKVRIKN [NEJ1 C-terminal 12 aa]	0.706 ± 0.047	0.698 ± 0.0074
KLAEHGAKKQKI [GCD10 C-terminal 12 aa]	0.7217 ± 0.0024	0.659 ± 0.016
KLESSKNTSHEK [NFU1 C-terminal 12 aa]	0.725 ± 0.0084	0.705 ± 0.0085
KLGLFRHIFSRK [LRE1 C-terminal 12 aa]	0.691 ± 0.012	0.704 ± 0.01

Sequence	protein stability index [1]	protein stability index (genetic background: wild type)
KLLIRFILLVNS [YPR130C C-terminal 12 aa]	0.172 ± 0.016	0.111 ± 0.0048
KLLLNELRSFCV [PCL10 C-terminal 12 aa]	0.72 ± 0.009	0.694 ± 0.028
KLLQIHKSKQQD [TAH11 C-terminal 12 aa]	0.69 ± 0.013	0.706 ± 0.012
KLRITSQENKTE [BCK1 C-terminal 12 aa]	0.68 ± 0.022	0.766 ± 0.036
KLRREDEIIVYA [REC8 C-terminal 12 aa]	0.6145 ± 0.0033	0.644 ± 0.0052
KLVWTLQSLCMR [YEL032C-A C-terminal 12 aa]	0.688 ± 0.0084	0.681 ± 0.021
KMIESLKSKLKE [CIN5 C-terminal 12 aa]	0.693 ± 0.02	0.686 ± 0.027
KMKQRKLTPGDS [CMC4 C-terminal 12 aa]	0.691 ± 0.018	0.65 ± 0.0073
KNEEDSTYFSNV [PMR1 C-terminal 12 aa]	0.6935 ± 0.0013	0.698 ± 0.027
KNKTKQNQAQSW [LTO1 C-terminal 12 aa]	0.704 ± 0.012	0.679 ± 0.017
KNLWMRENEITI [HES1 C-terminal 12 aa]	0.711 ± 0.059	0.71 ± 0.018
KNSDSTEKNATI [DAT1 C-terminal 12 aa]	0.702 ± 0.026	0.736 ± 0.034
KPGTIIHFSTNR [ASK1 C-terminal 12 aa]	0.71325 ± 0.00059	0.691 ± 0.034
KQEQESLGSNSK [DAD3 C-terminal 12 aa]	0.666 ± 0.012	0.661 ± 0.035
KQLDLKHMLEMH [MRPL44 C-terminal 12 aa]	0.7 ± 0.0085	0.6897 ± 0.0057
KQPDLQERVTQE [MHF1 C-terminal 12 aa]	0.666 ± 0.045	0.685 ± 0.14
KRAELASKYIYS [COG8 C-terminal 12 aa]	0.713 ± 0.022	0.692 ± 0.015
KRGEIYETGKFF [OLE1 C-terminal 12 aa]	0.707 ± 0.011	0.723 ± 0.011
KTSNTKVSSRKA [ELO3 C-terminal 12 aa]	0.6964 ± 0.0051	0.673 ± 0.03

From the supplement of paper PMC10724198
